What all share (assay): BiFC in tobacco leaf epidermal cells
In test [1] the target is T1, BSL1 (BiFC construct tested with BSK1-cYFP) (Arabidopsis, UniProt Q8L7U5 1-881).
T1 sequence: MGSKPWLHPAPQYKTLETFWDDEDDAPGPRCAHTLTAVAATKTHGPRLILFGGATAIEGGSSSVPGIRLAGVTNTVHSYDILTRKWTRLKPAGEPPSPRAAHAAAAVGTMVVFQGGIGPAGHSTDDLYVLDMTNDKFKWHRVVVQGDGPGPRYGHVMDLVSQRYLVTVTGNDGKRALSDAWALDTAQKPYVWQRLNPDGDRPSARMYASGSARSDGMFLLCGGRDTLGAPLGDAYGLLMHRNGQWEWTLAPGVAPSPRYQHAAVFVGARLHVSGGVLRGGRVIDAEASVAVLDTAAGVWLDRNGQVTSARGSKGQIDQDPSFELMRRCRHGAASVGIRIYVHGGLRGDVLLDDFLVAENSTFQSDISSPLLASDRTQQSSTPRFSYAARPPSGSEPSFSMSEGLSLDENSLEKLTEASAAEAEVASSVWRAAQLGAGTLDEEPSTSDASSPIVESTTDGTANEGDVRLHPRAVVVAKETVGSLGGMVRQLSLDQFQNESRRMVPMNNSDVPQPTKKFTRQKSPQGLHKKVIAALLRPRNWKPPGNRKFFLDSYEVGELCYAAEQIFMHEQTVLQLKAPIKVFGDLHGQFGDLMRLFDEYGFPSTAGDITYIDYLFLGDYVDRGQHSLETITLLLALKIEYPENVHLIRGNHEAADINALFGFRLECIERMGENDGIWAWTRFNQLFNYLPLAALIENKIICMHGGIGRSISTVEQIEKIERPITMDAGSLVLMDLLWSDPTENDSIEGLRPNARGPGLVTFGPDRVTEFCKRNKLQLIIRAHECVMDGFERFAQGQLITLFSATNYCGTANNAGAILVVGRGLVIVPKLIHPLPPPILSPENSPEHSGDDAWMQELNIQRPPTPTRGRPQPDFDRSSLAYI
The source says: (§1) The blot was probed sequentially with MBP-BSU1 and anti-MBP antibody (upper) and then stained with Ponceau S (lower). […] Tobacco leaf epidermal cells were transformed with indicated constructs. At5g49760 is a receptor kinase unrelated to BR signaling used here as a negative control. Bright spots in nYFP+BSK 1-cYFP and At5g49760-nYFP+BSK1-cYFP are chloroplast auto-fluorescence. […] Total protein extracts obtained from Arabidopsis plants (F1) expressing BSU1 -YFP or co-expressing BSU1-YFP and BSK1-myc were immunoprecipitated with anti-myc, and the immunoblot was probed with anti-GFP and anti-myc antibody. […] GST-BSK1 or GST-BSK1 S230A was incubated with GST-BRI1-K or GST for 2 hrs. […] In the presence of BR (+BR), BR binding to the extracellular domain of BRI1 induces dissociation of BKI1 and association and inter-activation between BRI1 and BAKI. Activated BRI1 then phosphorylates BSK1, which in turn dissociates from the receptor complex and interacts with and presumably activate BSU1. BSU1 inactivates BIN2 by dephosphorylating its pTyr200, allowing accumulation of unphosphorylated BZR1/2, likely with help of a phosphatase that is yet to be identified. Unphosphorylated BZR1/2 accumulate in the nucleus and alter the expression of BR-target genes, leading to cellular and developmental responses. While individual representative protein is shown for each function, in Arabidopsis most of these components have about 2 to 5 homologous proteins (paralogs) that can contribute to the same or similar signaling function.
(§2) Transformation by Agrobacterium infiltration, observations of subcellular localization and BiFC signal in tobacco or Arabidopsis were performed as described previously 5.

The target in test [2] is T2, At5g49760-nYFP (UniProt Q8GZ99 24-953).
T2 construct: BiFC negative control; not shown: N-terminal half of YFP (nYFP)
T2 sequence (looked up): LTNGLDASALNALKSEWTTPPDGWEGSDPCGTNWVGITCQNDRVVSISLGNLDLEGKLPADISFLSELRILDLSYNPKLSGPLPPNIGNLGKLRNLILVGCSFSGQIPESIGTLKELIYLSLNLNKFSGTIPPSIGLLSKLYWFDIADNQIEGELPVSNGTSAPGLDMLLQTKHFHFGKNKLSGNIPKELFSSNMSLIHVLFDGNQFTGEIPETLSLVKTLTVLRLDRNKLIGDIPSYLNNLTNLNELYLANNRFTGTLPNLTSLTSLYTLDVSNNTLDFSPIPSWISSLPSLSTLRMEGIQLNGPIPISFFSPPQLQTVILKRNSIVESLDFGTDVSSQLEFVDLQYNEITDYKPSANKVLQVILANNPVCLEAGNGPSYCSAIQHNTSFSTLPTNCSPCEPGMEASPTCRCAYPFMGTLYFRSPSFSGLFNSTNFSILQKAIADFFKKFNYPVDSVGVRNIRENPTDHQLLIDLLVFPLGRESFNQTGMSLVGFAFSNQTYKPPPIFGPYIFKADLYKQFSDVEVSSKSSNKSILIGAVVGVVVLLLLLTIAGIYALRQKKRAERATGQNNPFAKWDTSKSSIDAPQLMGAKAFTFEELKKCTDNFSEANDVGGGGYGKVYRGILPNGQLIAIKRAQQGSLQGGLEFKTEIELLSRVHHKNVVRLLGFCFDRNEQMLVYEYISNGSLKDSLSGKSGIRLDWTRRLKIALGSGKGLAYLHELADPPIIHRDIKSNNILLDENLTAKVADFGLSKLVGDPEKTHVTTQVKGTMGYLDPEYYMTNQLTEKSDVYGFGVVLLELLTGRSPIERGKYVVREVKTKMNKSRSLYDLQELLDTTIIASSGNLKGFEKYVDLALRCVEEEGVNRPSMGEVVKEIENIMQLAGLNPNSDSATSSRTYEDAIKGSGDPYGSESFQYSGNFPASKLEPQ
Description: as §1, §2

In test [3] the target is BSU1 (BiFC construct tested with BSK1-cYFP) (Arabidopsis, UniProt Q9LR78 1-793).
Sequence of BSU1 (BiFC construct tested with BSK1-cYFP) (Q9LR78 whole entry): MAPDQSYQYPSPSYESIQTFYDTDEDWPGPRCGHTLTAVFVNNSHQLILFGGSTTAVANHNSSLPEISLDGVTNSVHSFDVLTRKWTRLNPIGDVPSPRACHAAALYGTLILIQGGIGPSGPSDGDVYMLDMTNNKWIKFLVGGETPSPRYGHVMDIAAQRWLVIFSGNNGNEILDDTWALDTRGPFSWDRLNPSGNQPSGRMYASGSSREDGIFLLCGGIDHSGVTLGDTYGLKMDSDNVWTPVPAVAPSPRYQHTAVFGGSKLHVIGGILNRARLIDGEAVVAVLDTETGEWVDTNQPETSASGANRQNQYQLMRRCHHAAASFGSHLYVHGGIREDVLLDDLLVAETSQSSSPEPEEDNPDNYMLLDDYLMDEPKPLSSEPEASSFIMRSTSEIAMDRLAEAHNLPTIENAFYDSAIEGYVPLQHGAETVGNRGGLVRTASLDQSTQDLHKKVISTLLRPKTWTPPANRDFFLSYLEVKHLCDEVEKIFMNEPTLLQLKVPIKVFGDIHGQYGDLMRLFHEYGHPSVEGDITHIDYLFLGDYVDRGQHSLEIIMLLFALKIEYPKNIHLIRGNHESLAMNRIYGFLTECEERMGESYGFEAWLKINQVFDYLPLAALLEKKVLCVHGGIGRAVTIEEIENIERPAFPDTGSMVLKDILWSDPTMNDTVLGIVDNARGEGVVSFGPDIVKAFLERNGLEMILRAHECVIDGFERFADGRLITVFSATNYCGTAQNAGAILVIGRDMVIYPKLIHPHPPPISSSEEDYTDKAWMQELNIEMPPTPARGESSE
Description: as §1, §2

B1: BSK1-cYFP (enzyme, Arabidopsis, UniProt Q944A7 2-512, looked up)
chain: GCCQSLFSGDNPLGKDGVQPQPLSQNNHGGATTADNGGSGGASGVGGGGGGGGIPSFSEFSFADLKAATNNFSSDNIVSESGEKAPNLVYKGRLQNRRWIAVKKFTKMAWPEPKQFAEEAWGVGKLRHNRLANLIGYCCDGDERLLVAEFMPNDTLAKHLFHWENQTIEWAMRLRVGYYIAEALDYCSTEGRPLYHDLNAYRVLFDEDGDPRLSCFGLMKNSRDGKSYSTNLAYTPPEYLRNGRVTPESVTYSFGTVLLDLLSGKHIPPSHALDMIRGKNIILLMDSHLEGKFSTEEATVVVELASQCLQYEPRERPNTKDLVATLAPLQTKSDVPSYVMLGIKKQEEAPSTPQRPLSPLGEACSRMDLTAIHQILVMTHYRDDEGTNELSFQEWTQQMKDMLDARKRGDQSFREKDFKTAIDCYSQFIDVGTMVSPTVFGRRSLCYLLCDQPDAALRDAMQAQCVYPDWPTAFYMQSVALAKLNMNTDAADMLNEAAQLEEKRQRGGRGS
notes: BiFC construct in tobacco leaf epidermal cells; not shown: C-terminal half of YFP (cYFP)
With B1, the figures for the binding result in test [1], in test [2] and in test [3] were “binds”, “no binding” and “binds”, respectively.

For the origin of these results see patent publication US20120322150A1 (CARNEGIE INSTITUTION OF WASHINGTON, published 2012).
